The test concerns the target each PDZ domain-containing protein (GST-DLG1, GST-NeDLG, and GST-PSD95 fusion proteins of FIG. 9B). Description: 30 µM biotinylated peptide on plate-bound GST-PDZ fusions, streptavidin-HRP (FIG. 9B).

“And” between values parts separate entries of the source, which are not always exact repeats. Equal entries are not always repeated.

B1: biotinylated synthetic peptide corresponding to the C-terminal 20 amino acids of CLASP-2 (peptide)
peptide: VLHHHQNPEFYDEIKIELPTQLHEKHHLLLTFFHVSCDNSSKGSTKKRDVVETQVGYSWLPLLKDGRVVTSEQHIPVSANLPSGYLGYQELGMGRHYGPEIKWVDGGKPLLKISTHLVSTVYTQDQHLHNFFQYCQKTESGAQALGNELVKYLKSLHAMEGHVMIAFLPTILNQLFRVLTRATQEEVAVNVTRVIIHVVAQCHEEGLESHLRSYVKYAYKAEPYVASEYKTVHEELTKSMTTILKPSADFLTSNKLLRYSWFFFDVLIKSMAQHLIENSKVKLLRNQRFPASYHHAAETVVNMLMPHITQKFGDNPEASKNANHSLAVFIKRCFTFMDRGFVFKQINNYISCFAPGDPKTLFEYKFEFLRVVCNHEHYIPLNLPMPFGKGRIQRYQDLQLDYSLTDEFCRNHFLVGLLLREVGTALQEFREVRLIAISVLKNLLIKHSFDDRYASRSHQARIATLYLPLFGLLIENVQRINVRDVSPFPVNAGMTVKDESLALPAVNPLVTPQKGSTLDNSLHKDLLGAISGIASPYTTSTPNINSVRNADSRGSLISTDSGNSLPERNSEKSNSLDKHQQSSTLGNSVVRCDKLDQSEIKSLLMCFLYILKSMSDDALFTYWNKASTSELMDFFTISEVCLHQFQYMGKRYIARNQEGLGPIVHDRKSQTLPVSRNRTGMMHARLQQLGSLDNSLTFNHSYGHSDADVLHQSLLEANIATEVCLTALDTLSLFTLAFKNQLLADHGHNPLMKKVFDVYLCFLQKHQSETALKNVFTALRSLIYKFPSTFYEGRADMCAALCYEILKCCNSKLSSIRTEASQLLYFLMRNNFDYTGKKSFVRTHLQVIISVSQLIADVVGIGETRFQQSLSIINNCANSDRLIKHTSFSSDVKDLTKRIRTVLMATAQMKEHENDPEMLVDLQYSLAKSYASTPELRKTWLDSMARIHVKNGDLSEAAMCYVHVTALVAEYLTRKGVFRQGCTAFRVITPNIDEEASMMEDVGMQDVHFNEDVLMELLEQCADGLWKAERYELIADIYKLIIPIYEKRRDFFEDEDGKEYIYKEPKLTPLSEISQRLLKLYSDKFGSENVKMIQDSGKVNPKDLDSKYAYIQVTHVIPFFDEKELQERKTEFERSHNIRRFMFEMPFTQTGKRQGGVEEQCKRRTILTAIHCFPYVKKRIPVMYQHHTDLNPIEVAIDEMSKKVAELRQLCSSAEVDMIKLQLKLQGSVSVQVNAGPLAYARAFLDDTNTKRYPDNKVKLLKEVFRQFVEACGQALAVNERLIKEDQLEYQEEMKANYREMAKELSEIMHEQICPLEEKTSVLPNSLHIFNAISGTPTSTMVHGMTSSSSVV
modifications: biotin at the amino-terminus
Take B1: the OD units at 30 µM peptide is 0.4 OD units and 1 OD units.

The values are drawn from patent US20060153851A1.
